Laboratory results from US20130224779A1, “METHOD FOR LARGE SCALE PREPARATION OF THE ACTIVE DOMAIN OF HUMAN PROTEIN TYROSINE PHOSPHATASE WITHOUT FUSION PROTEIN” (Korea Research Institute of Bioscience and Biotechnology, priority 2007, published 2013).

B1: T38: recombinant PTP active domain; unstable domain 636-979, stable domain 709-979, SEQ. ID. NO: 120 (protein)
chain: LAKEWQALCAYQAEPNTCATAQGEGNIKKNRHPDFLPYDHARIKLKVESSPSRSDYINASPIIEHDPRMPAYIATQGPLSHTIADFWQMVWESGCTVIVMLTPLVEDGVKQCDRYWPDEGASLYHVYEVNLVSEHIWCEDFLVRSFYLKNVQTQETRTLTQFHFLSWPAEGTPASTRPLLDFRRKVNKCYRGRSCPIIVHCSDGAGRTGTYILIDMVLNRMAKGVKEIDIAATLEHVRDQRPGLVRSKDQFEFALTAVAEEVNAILKALP
modifications: Amino acid sequence of PTP active domain T38
B2: re-designed pk7: re-designed stable PTP active domain of pk7 (MKP2), amino acids 174-338, SEQ. ID. NO: 136 (protein)
chain: SATEPLDLGCSSCGTPLHDQGGPVEILPFLYLGSAYHAARRDMLDALGITALLNVSSDCPNHFEGHYQYKCIPVEDNHKADISSWFMEAIEYIDAVKDCRGRVLVHCQAGISRSATICLAYLMMKKRVRLEEAFEFVKQRRSIISPNFSFMGQLLQFESQVLATS
modifications: Amino acid sequence of PTP active domain pk7
B3: full length pk7: full length pk7 (MKP2), unstable domain amino acids 1-394 (protein, UniProt Q13115 1-394, looked up)
chain: MVTMEELREMDCSVLKRLMNRDENGGGAGGSGSHGTLGLPSGGKCLLLDCRPFLAHSAGYILGSVNVRCNTIVRRRAKGSVSLEQILPAEEEVRARLRSGLYSAVIVYDERSPRAESLREDSTVSLVVQALRRNAERTDICLLKGGYERFSSEYPEFCSKTKALAAIPPPVPPSATEPLDLGCSSCGTPLHDQGGPVEILPFLYLGSAYHAARRDMLDALGITALLNVSSDCPNHFEGHYQYKCIPVEDNHKADISSWFMEAIEYIDAVKDCRGRVLVHCQAGISRSATICLAYLMMKKRVRLEEAFEFVKQRRSIISPNFSFMGQLLQFESQVLATSCAAEAASPSGPLRERGKTPATPTSQFVFSFPVSVGVHSAPSSLPYLHSPITTSPSC
modifications: full-length

How the values were obtained:
[1] = Protease (trypsin or chymotrypsin) digestion of PTP active domain, SDS-PAGE; format: physicochemical; settings: 37° C., 30 minutes, SDS-PAGE (FIG. 8)
Description: Based on the result of Example <1-3-1>, 20 μg of PTP active domain having low solubility and stability was serially diluted from 1:1 to 1:1,000, followed by reaction with trypsin (Sigma, USA) or chymotrypsin (Sigma, USA) at 37° C. for 30 minutes. SDS-PAGE was performed by the same manner as described in Example 3 to confirm digestion.

[2] = Solubility and stability of expressed domain by SDS-PAGE of supernatant and precipitate; format: physicochemical; settings: expressed in E. coli, SDS-PAGE (FIG. 9)
Description: After cloning the PTP active domain determined in Example <1-2>, it was expressed in E. coli and purified therefrom. After storing for a while, a proper amount of protein solution was ultra-centrifuged to separate supernatant and precipitate. SDS-PAGE was performed with the precipitate by the same manner as described in Example 3 to investigate whether the precipitate contained the target protein, leading to the examination of solubility.
The protein band cut by protease obtained in Example <1-3-2> was transferred to PVDF membrane. The band was cut and treated with a reagent recognizing and digesting N-terminal, followed by HPLC stepwise to arrange amino acids. Mass spectrometry was performed with the band to calculate the mass exactly and select stable domains. The re-designed domains were tested for activity and stability by the same manner as described in Example 4.

Molecule | stability with increase of protease concentration [1] | solubility [2] | stability [2]
B1 | maintained |  | 
B2 |  | high | high
B3 |  | low | low
